The values below are quoted from earlier work in patent US20080089848A1, “INTRATHECAL INJECTION OF MICROBUBBLES” (priority 2006, published 2008).

The conditions of series [1]: infusion of tPA and microbubbles.
The next series deals with stroke. The settings on record: intracisternal injection into the cisterna magna, rats.

B1: tPA: thrombolytic agent (protein, UniProt P00750 36-562, looked up)
Tissue-type plasminogen …: SYQVICRDEKTQMIYQQHQSWLRPVLRSNRVEYCWCNSGRAQCHSVPVKSCSEPRCFNGGTCQQALYFSDFVCQCPEGFAGKCCEIDTRATCYEDQGISYRGTWSTAESGAECTNWNSSALAQKPYSGRRPDAIRLGLGNHNYCRNPDRDSKPWCYVFKAGKYSSEFCSTPACSEGNSDCYFGNGSAYRGTHSLTESGASCLPWNSMILIGKVYTAQNPSAQALGLGKHNYCRNPDGDAKPWCHVLKNRRLTWEYCDVPSCSTCGLRQYSQPQFRIKGGLFADIASHPWQAAIFAKHRRSPGERFLCGGILISSCWILSAAHCFQERFPPHHLTVILGRTYRVVPGEEEQKFEVEKYIVHKEFDDDTYDNDIALLQLKSDSSRCAQESSVVRTVCLPPADLQLPDWTECELSGYGKHEALSPFYSERLKEAHVRLYPSSRCTSQHLLNRTVTDNMLCAGDTRSGGPQANLHDACQGDSGGPLVCLNDGRMTLVGIISWGLGCGQKDVPGVYTKVTNYLDWIRDNMRP
B1: the clot lysis result in series [1] is listed as “accelerate clot lysis”.

B2: BMP-7: bone morphogenetic protein (protein, UniProt P18075 293-431, looked up)
Bone morphogenetic protein 7: STGSKQRSQNRSKTPKNQEALRMANVAENSSSDQRQACKKHELYVSFRDLGWQDWIIAPEGYAAYYCEGECAFPLNSYMNATNHAIVQTLVHFINPETVPKPCCAPTQLNAISVLYFDDSSNVILKKYRNMVVRACGCH
B2: in the series with stroke, the “functional recovery of neurons after stroke” value is reported as “promotes functional recovery”.
